Changes are numbered by the printed parent chain.

The target of assay [1] is wildtype PoloBD-fusion protein (Drosophila melanogaster) (UniProt P52304). The experiment in a line: yeast two-hybrid, serial dilutions.
Assay [2] concerns the target T1, HA-Polo (Drosophila melanogaster, UniProt P52304 1-576).
T1 construct: Expressed with baculovirus in Sf9 cells; also called Polo with a 2XHA tag at the N-terminus; not shown: N-terminal 2XHA tag
T1 sequence (looked up): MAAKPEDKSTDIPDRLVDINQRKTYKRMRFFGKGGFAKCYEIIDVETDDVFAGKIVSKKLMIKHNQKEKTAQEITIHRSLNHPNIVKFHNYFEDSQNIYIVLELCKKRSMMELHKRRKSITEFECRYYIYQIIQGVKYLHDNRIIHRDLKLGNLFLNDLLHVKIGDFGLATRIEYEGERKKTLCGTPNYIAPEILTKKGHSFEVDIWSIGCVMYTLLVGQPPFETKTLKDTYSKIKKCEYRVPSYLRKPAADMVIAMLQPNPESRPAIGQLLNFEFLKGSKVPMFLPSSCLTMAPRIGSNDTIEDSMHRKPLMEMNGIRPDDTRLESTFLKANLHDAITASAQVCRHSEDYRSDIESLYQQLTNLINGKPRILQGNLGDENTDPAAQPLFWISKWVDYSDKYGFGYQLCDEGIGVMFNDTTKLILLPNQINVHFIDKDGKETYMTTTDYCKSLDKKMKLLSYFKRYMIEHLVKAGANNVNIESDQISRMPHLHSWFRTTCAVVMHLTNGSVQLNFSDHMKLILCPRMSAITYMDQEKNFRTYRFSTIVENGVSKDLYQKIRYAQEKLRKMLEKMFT
Briefly: purified Flag-Mtrm incubated with HA-Polo, immunoprecipitated with anti-Mtrm antibody, anti-HA Western blot (FIG. 18). How it is done:
Protein from affinity-purified Flag-Mtrm and HA-Polo was used for an in vitro binding experiment. 50 μg Flag-Mtrm was mixed with the same amount of HA-Polo in 60 μl of the above buffer and incubated for 1 hr at 30° C. As a control, 50 μg HA-Polo in 60 μl was also incubated. After incubation, both protein samples were immunoprecipitated using 50 μl protein A agarose beads coated with anti-Mtrm antibody (from guinea pig) for 1 hr at 4° C. The agarose beads were washed 6 times with the above protein buffer.
For Western blotting, the beads were suspended in 40 μl of SDS loading buffer (50 mM Tris-HCl (pH 6.8), 100 mM DTT, 2% SDS, 0.1% bromophenol blue, 10% glycerol) and heated for 3 min at 95° C. before being loaded on a PAGE gel. Western blotting for HA-Polo was conducted using anti-HA antibody from mouse and an Alkaline Phosphatase chromogen kit (BCIP/NBT) (Roche). (FIG. 18).

For assay [3], the target named is T2, Polo kinase (Polo) (Drosophila melanogaster, UniProt P52304 1-576, T182 detected as phosphorylated (over 80%) in Polo bound to Mtrm).
T2 construct: Endogenous Polo in ovary extracts; also called polo (FBgn0003124)
T2 sequence (looked up): T1 sequence (looked up)
Briefly: anti-FLAG affinity purification from ovarian extracts, MudPIT mass spectrometry, three replicates. The source says:
We analyzed three independent affinity purifications from ovarian extracts expressing a C-terminally 3×FLAG-tagged Mtrm and used MudPIT mass spectrometry to identify interacting proteins. We then compared the identified proteins to those detected in five control FLAG immuno-precipitations from control (w¹¹¹⁸) flies.
In order to prepare a C-terminally 3×FLAG-tagged Mtrm for the MudPIT mass spectrometry assay, the UASP-mtrm-Flag (3×) construct was expressed in ovaries under the control of the nanos-GAL4 driver in a wild-type background. The extraction of protein from the ovaries was the same as described above. 100 μl of anti-FLAG beads were washed 2 times with pre-chilled 1×PBS and then 2 times with pre-chilled ovary extract buffer. The anti-FLAG beads were mixed with the extract supernatant, incubated and washed as described above. After washing, the beads bound with Mtrm-FLAG (3×) were finally transferred to a mini-column and washed with 25 ml of TBS (50 mM Tris-HCl, pH 7.4, 150 mM NaCl) at 4° C. When washing was completed, 300 μl TBS with 100 μg/ml 3×FLAG peptide was added to elute proteins. TCA was added to the eluted protein solution at a final concentration of 20%. The solution was mixed and kept on ice for at least 30 minutes. The solution was centrifuged at 14000 rpm at 4° C. for 15 minutes. […] The pellet was air dried and ready for the Mud PIT spectrometry analysis.

The target of assay [4] is T2, Polo kinase (Polo). The experiment in a line: co-immunoprecipitation, ovary extracts. How it is done: To prepare the ovary extract for immunoprecipitation, ovaries from 100 yeast-fed female flies were dissected in 1×PBS. The ovaries were homogenized in an Eppendorf tube at 4° C. by a small pestle in 0.5 ml of ovary extract buffer containing 25 mM Hepes (pH 6.8), 50 mM KCl, 1 mM MgCl₂, 1 mM DTT and 125 mM sucrose with protease inhibitors cocktail (Calbiochem). The extract was centrifuged at 14000×g for 15 minutes at 4° C. and the supernatant was collected.
Protein A agarose beads were used for binding polyclonal antibodies from rabbit and guinea pig. Protein G agarose beads were used for binding monoclonal antibody from mouse. 50 ul of protein A or G-coated agarose was washed three times with PBST (PBS+0.1% Triton X-100). 10 ul of antibody was added to the beads in a final volume of 500 ul of PBS and mixed on a shaker for 1 hour at 4° C. The beads then were washed twice with PBST. The ovary extract was immunoprecipitated with the beads for 1 hour at 4° C. with continual shaking. After recovery by centrifugation at 1000×g for 3 minutes, the beads were washed 4 times with the cold ovary extract buffer with protease inhibitors, for 5 minutes each. For Western blotting, the beads were suspended in 30 μl of SDS loading buffer (50 mM Tris-HCl (pH 6.8), 100 mM DTT, 2% SDS, 0.1% bromophenol blue, 10% glycerol) and heated for 3 minutes at 95° C. before being loaded on a PAGE gel. […]

In assay [1], “MtrmT(40)A mutant MtrmAD-fusion protein (from UniProt Q23973 1-217)” came in with a colonies at the third serial dilution of 1 colonies and a colonies following the first serial dilution of 7 colonies.

B1: Flag-Mtrm (other)
chain: MENSRTPTNKTKITLNRTPTLKERRWNTLKVNTSNVRCSTPIFGNFRSPNLSPIENMGTKGKSPVSPMRFATFKKVPTKVHPKQQQQQQHQHCHRTQLKPPPFVLPKPQEEIIEPEREIKSCSSPDTCSDDSNMETSLALESRRRSIKASNHSYVVNHAANVEQILMHMGLENYVTNFEEAHIDLVELASLERADLVKIGLNTDEDCNRIMDVLHTL
notes: Expressed with baculovirus in Sf9 cells; also called Mtrm with a Flag tag at the N-terminus; not shown: N-terminal Flag tag
As for B1, the binding result in assay [2] was “binds”.

B2: C-terminally 3×FLAG-tagged Mtrm (other)
chain: B1 chain
modifications: phosphorylation detected on T40, S124 (less reproducibly), S48, S52 and S137
notes: Expressed in ovaries under nanos-GAL4 in a wild-type background; purified on anti-FLAG beads for MudPIT; also called Mtrm-Flag(3×); Mtrm-FLAG (3×); not shown: C-terminal 3×FLAG tag
As for B2, in assay [3], the “ratio between the two proteins (NSAF)” value was 0.96 ratio of NSAF values.

B3: Mtrm with both PBD binding sites mutated (T(40)A and S(124)A) (other)
chain: B1 chain with T40A, S124A
Take B3: the binding result in assay [4] is “no binding”.

The values are drawn from patent US20090123934A1 (published 2009).
